# According to patent US20120329707A1 (INDIANA UNIVERSITY RESEARCH AND TECHNOLOGY, published 2012):
# Numbered stars: 1 amine (or outer) side, 2 acyl side, 3 side chain; on linkers, the order of the positions; unused ones are H or OH. Square brackets hold non-standard residues; d marks the D form. Primed or numbered codes have the meaning given here. Side chains are listed from the residue outwards. Ends that are not written are not given here. * marks the point of attachment. 40K‑TE PEG″ = 40 kDa PEG bound to Cys via thioether made from an iodoacetyl-functionalised PEG; γGlu = O=C(O)[C@H](CCC(=O)[*:2])N[*:1]; Desaminohistidyl = O=C(CCc1c[nH]cn1)*; Palmitoyl = CCCCCCCCCCCCCCCC(=O)*; Aib = CC(C)(N)C(=O)O
# Experiments:
# Experiment in all cases: cell-based or functional assay
# [1] = molecular target: GLP-1 receptor
# [2] = molecular target: glucagon receptor
# [3] = molecular target: T1, GIP receptor
# T1 sequence (P48546 whole entry, species assumed, looked up): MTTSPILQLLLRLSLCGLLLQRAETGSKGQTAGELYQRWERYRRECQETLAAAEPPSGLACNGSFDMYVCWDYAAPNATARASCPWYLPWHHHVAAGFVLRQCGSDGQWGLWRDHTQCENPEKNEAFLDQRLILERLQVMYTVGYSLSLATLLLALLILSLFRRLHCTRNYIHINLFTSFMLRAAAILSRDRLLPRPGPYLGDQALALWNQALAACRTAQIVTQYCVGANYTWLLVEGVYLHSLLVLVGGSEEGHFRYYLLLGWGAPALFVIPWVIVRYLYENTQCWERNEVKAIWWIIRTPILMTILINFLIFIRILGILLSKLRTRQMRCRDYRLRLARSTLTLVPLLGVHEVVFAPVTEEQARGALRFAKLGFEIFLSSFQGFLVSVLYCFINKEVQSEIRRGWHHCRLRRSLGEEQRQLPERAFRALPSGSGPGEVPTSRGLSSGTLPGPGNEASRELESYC
binder,measurement,setting,value
H[Aib]QGTFTSDK([γGlu-γGlu-Palmitoyl])SKYLD[Aib]RAAQDFVQWLMDGRG-NH2 (N-terminus assumed; SMILES CCCCCCCCCCCCCCCC(=O)N[C@@H](CCC(=O)N[C@@H](CCC(=O)NCCCC[C@H](NC(=O)[C@H](CC(=O)O)NC(=O)[C@H](CO)NC(=O)[C@@H](NC(=O)[C@H](Cc1ccccc1)NC(=O)[C@@H](NC(=O)CNC(=O)[C@H](CCC(N)=O)NC(=O)C(C)(C)NC(=O)[C@@H](N)Cc1c[nH]cn1)[C@@H](C)O)[C@@H](C)O)C(=O)N[C@@H](CO)C(=O)N[C@@H](CCCCN)C(=O)N[C@@H](Cc1ccc(O)cc1)C(=O)N[C@@H](CC(C)C)C(=O)N[C@@H](CC(=O)O)C(=O)NC(C)(C)C(=O)N[C@@H](CCCNC(=N)N)C(=O)N[C@@H](C)C(=O)N[C@@H](C)C(=O)N[C@@H](CCC(N)=O)C(=O)N[C@@H](CC(=O)O)C(=O)N[C@@H](Cc1ccccc1)C(=O)N[C@H](C(=O)N[C@@H](CCC(N)=O)C(=O)N[C@@H](Cc1c[nH]c2ccccc12)C(=O)N[C@@H](CC(C)C)C(=O)N[C@@H](CCSC)C(=O)N[C@@H](CC(=O)O)C(=O)NCC(=O)N[C@@H](CCCNC(=N)N)C(=O)NCC(N)=O)C(C)C)C(=O)O)C(=O)O) [peptide of SEQ ID NO: 22],EC50 (nM) at GLP-1 receptor,[1],0.002 nM
same,EC50 (nM) at glucagon receptor,[2],0.005 nM
same,EC50 (nM) at GIP receptor,[3],2.37 nM
H[Aib]QGTFTSDYSKYLDEKRA[Aib]EFVC(40K‑TE PEG″)WLLDE-NH2 [peptide of SEQ ID NO: 16],EC50 (nM) at GLP-1 receptor,[1],0.487 nM
same,EC50 (nM) at glucagon receptor,[2],0.563 nM
same,EC50 (nM) at GIP receptor,[3],465 nM
[Desaminohistidyl][dS]QGTFTSDK([γGlu-Palmitoyl])SKYLDERAAQDFVQWLLDT-NH2 [peptide of SEQ ID NO: 20],EC50 (nM) at GLP-1 receptor,[1],0.004 nM
same,EC50 (nM) at glucagon receptor,[2],0.006 nM
same,EC50 (nM) at GIP receptor,[3],1.38 nM
Ac-H[dS]QGTFTSDK([γGlu-Palmitoyl])SKYLDERAAQDFVQWLLDT-NH2 [peptide of SEQ ID NO: 21],EC50 (nM) at GLP-1 receptor,[1],0.009 nM
same,EC50 (nM) at glucagon receptor,[2],0.005 nM
same,EC50 (nM) at GIP receptor,[3],4.5 nM
H[Aib]QGTFTSDK(Palmitoyl)SKYLDSRRA[Aib]DFVQWLMNT-NH2 (N-terminus assumed; SMILES CCCCCCCCCCCCCCCC(=O)NCCCC[C@H](NC(=O)[C@H](CC(=O)O)NC(=O)[C@H](CO)NC(=O)[C@@H](NC(=O)[C@H](Cc1ccccc1)NC(=O)[C@@H](NC(=O)CNC(=O)[C@H](CCC(N)=O)NC(=O)C(C)(C)NC(=O)[C@@H](N)Cc1c[nH]cn1)[C@@H](C)O)[C@@H](C)O)C(=O)N[C@@H](CO)C(=O)N[C@@H](CCCCN)C(=O)N[C@@H](Cc1ccc(O)cc1)C(=O)N[C@@H](CC(C)C)C(=O)N[C@@H](CC(=O)O)C(=O)N[C@@H](CO)C(=O)N[C@@H](CCCNC(=N)N)C(=O)N[C@@H](CCCNC(=N)N)C(=O)N[C@@H](C)C(=O)NC(C)(C)C(=O)N[C@@H](CC(=O)O)C(=O)N[C@@H](Cc1ccccc1)C(=O)N[C@H](C(=O)N[C@@H](CCC(N)=O)C(=O)N[C@@H](Cc1c[nH]c2ccccc12)C(=O)N[C@@H](CC(C)C)C(=O)N[C@@H](CCSC)C(=O)N[C@@H](CC(N)=O)C(=O)N[C@H](C(N)=O)[C@@H](C)O)C(C)C) [peptide of SEQ ID NO: 58],EC50 (nM) at GLP-1 receptor,[1],0.025 nM
same,EC50 (nM) at glucagon receptor,[2],0.09 nM
same,EC50 (nM) at GIP receptor,[3],35.7 nM
H[dS]QGTFTSDK([γGlu-Palmitoyl])SKYLDERAAQDFVQWLLDGRG-NH2 [peptide of SEQ ID NO: 19],EC50 (nM) at GLP-1 receptor,[1],0.002 nM
same,EC50 (nM) at glucagon receptor,[2],0.004 nM
same,EC50 (nM) at GIP receptor,[3],0.812 nM
HXQGTFTSDKSKYLDERAAQDFVQWLMDT (aib at 2; Lys 10 with γEγEC16; C-terminal amide) [peptide of SEQ ID NO: 61],EC50 (nM) at GLP-1 receptor,[1],0.004 nM
same,EC50 (nM) at glucagon receptor,[2],0.009 nM
same,EC50 (nM) at GIP receptor,[3],0.676 nM
H[dA]QGTFTSDK([γGlu-Palmitoyl])SKYLDERAAQDFVQWLLDT-NH2 [peptide of SEQ ID NO: 56],EC50 (nM) at GLP-1 receptor,[1],0.02 nM
same,EC50 (nM) at glucagon receptor,[2],0.006 nM
same,EC50 (nM) at GIP receptor,[3],1.64 nM
H[Aib]QGTFTSDK([γGlu-Palmitoyl])SKYLD[Aib]RAAQDFVQWLMKTK[dE]-OH [peptide of SEQ ID NO: 60],EC50 (nM) at GLP-1 receptor,[1],0.033 nM
same,EC50 (nM) at glucagon receptor,[2],4.6 nM
same,EC50 (nM) at GIP receptor,[3],147 nM
H[Aib]QGTFTSDK([γGlu-γGlu-Palmitoyl])SKYLD[Aib]RAAQDFVQWLMKGRG-NH2 (N-terminus assumed; SMILES CCCCCCCCCCCCCCCC(=O)N[C@@H](CCC(=O)N[C@@H](CCC(=O)NCCCC[C@H](NC(=O)[C@H](CC(=O)O)NC(=O)[C@H](CO)NC(=O)[C@@H](NC(=O)[C@H](Cc1ccccc1)NC(=O)[C@@H](NC(=O)CNC(=O)[C@H](CCC(N)=O)NC(=O)C(C)(C)NC(=O)[C@@H](N)Cc1c[nH]cn1)[C@@H](C)O)[C@@H](C)O)C(=O)N[C@@H](CO)C(=O)N[C@@H](CCCCN)C(=O)N[C@@H](Cc1ccc(O)cc1)C(=O)N[C@@H](CC(C)C)C(=O)N[C@@H](CC(=O)O)C(=O)NC(C)(C)C(=O)N[C@@H](CCCNC(=N)N)C(=O)N[C@@H](C)C(=O)N[C@@H](C)C(=O)N[C@@H](CCC(N)=O)C(=O)N[C@@H](CC(=O)O)C(=O)N[C@@H](Cc1ccccc1)C(=O)N[C@H](C(=O)N[C@@H](CCC(N)=O)C(=O)N[C@@H](Cc1c[nH]c2ccccc12)C(=O)N[C@@H](CC(C)C)C(=O)N[C@@H](CCSC)C(=O)N[C@@H](CCCCN)C(=O)NCC(=O)N[C@@H](CCCNC(=N)N)C(=O)NCC(N)=O)C(C)C)C(=O)O)C(=O)O) [peptide of SEQ ID NO: 23],EC50 (nM) at GLP-1 receptor,[1],0.004 nM
same,EC50 (nM) at glucagon receptor,[2],0.023 nM
same,EC50 (nM) at GIP receptor,[3],1.58 nM
H[Aib]QGTFTSDK([γGlu-γGlu-Palmitoyl])SKYLD[Aib]RAAQDFVQWLKDGRG-NH2 (N-terminus assumed; SMILES CCCCCCCCCCCCCCCC(=O)N[C@@H](CCC(=O)N[C@@H](CCC(=O)NCCCC[C@H](NC(=O)[C@H](CC(=O)O)NC(=O)[C@H](CO)NC(=O)[C@@H](NC(=O)[C@H](Cc1ccccc1)NC(=O)[C@@H](NC(=O)CNC(=O)[C@H](CCC(N)=O)NC(=O)C(C)(C)NC(=O)[C@@H](N)Cc1c[nH]cn1)[C@@H](C)O)[C@@H](C)O)C(=O)N[C@@H](CO)C(=O)N[C@@H](CCCCN)C(=O)N[C@@H](Cc1ccc(O)cc1)C(=O)N[C@@H](CC(C)C)C(=O)N[C@@H](CC(=O)O)C(=O)NC(C)(C)C(=O)N[C@@H](CCCNC(=N)N)C(=O)N[C@@H](C)C(=O)N[C@@H](C)C(=O)N[C@@H](CCC(N)=O)C(=O)N[C@@H](CC(=O)O)C(=O)N[C@@H](Cc1ccccc1)C(=O)N[C@H](C(=O)N[C@@H](CCC(N)=O)C(=O)N[C@@H](Cc1c[nH]c2ccccc12)C(=O)N[C@@H](CC(C)C)C(=O)N[C@@H](CCCCN)C(=O)N[C@@H](CC(=O)O)C(=O)NCC(=O)N[C@@H](CCCNC(=N)N)C(=O)NCC(N)=O)C(C)C)C(=O)O)C(=O)O) [peptide of SEQ ID NO: 24],EC50 (nM) at GLP-1 receptor,[1],0.004 nM
same,EC50 (nM) at glucagon receptor,[2],0.021 nM
same,EC50 (nM) at GIP receptor,[3],1.46 nM
H[Aib]QGTFTSDK(Palmitoyl)SKYLDERRA[Aib]DFVQWLMNT-NH2 (N-terminus assumed; SMILES CCCCCCCCCCCCCCCC(=O)NCCCC[C@H](NC(=O)[C@H](CC(=O)O)NC(=O)[C@H](CO)NC(=O)[C@@H](NC(=O)[C@H](Cc1ccccc1)NC(=O)[C@@H](NC(=O)CNC(=O)[C@H](CCC(N)=O)NC(=O)C(C)(C)NC(=O)[C@@H](N)Cc1c[nH]cn1)[C@@H](C)O)[C@@H](C)O)C(=O)N[C@@H](CO)C(=O)N[C@@H](CCCCN)C(=O)N[C@@H](Cc1ccc(O)cc1)C(=O)N[C@@H](CC(C)C)C(=O)N[C@@H](CC(=O)O)C(=O)N[C@@H](CCC(=O)O)C(=O)N[C@@H](CCCNC(=N)N)C(=O)N[C@@H](CCCNC(=N)N)C(=O)N[C@@H](C)C(=O)NC(C)(C)C(=O)N[C@@H](CC(=O)O)C(=O)N[C@@H](Cc1ccccc1)C(=O)N[C@H](C(=O)N[C@@H](CCC(N)=O)C(=O)N[C@@H](Cc1c[nH]c2ccccc12)C(=O)N[C@@H](CC(C)C)C(=O)N[C@@H](CCSC)C(=O)N[C@@H](CC(N)=O)C(=O)N[C@H](C(N)=O)[C@@H](C)O)C(C)C) [peptide of SEQ ID NO: 59],EC50 (nM) at GLP-1 receptor,[1],0.01 nM
same,EC50 (nM) at glucagon receptor,[2],0.051 nM
same,EC50 (nM) at GIP receptor,[3],7.48 nM
